The assay addresses T1, GFP-C9orf72 (human, UniProt Q96LT7-1 1-481).
T1 sequence: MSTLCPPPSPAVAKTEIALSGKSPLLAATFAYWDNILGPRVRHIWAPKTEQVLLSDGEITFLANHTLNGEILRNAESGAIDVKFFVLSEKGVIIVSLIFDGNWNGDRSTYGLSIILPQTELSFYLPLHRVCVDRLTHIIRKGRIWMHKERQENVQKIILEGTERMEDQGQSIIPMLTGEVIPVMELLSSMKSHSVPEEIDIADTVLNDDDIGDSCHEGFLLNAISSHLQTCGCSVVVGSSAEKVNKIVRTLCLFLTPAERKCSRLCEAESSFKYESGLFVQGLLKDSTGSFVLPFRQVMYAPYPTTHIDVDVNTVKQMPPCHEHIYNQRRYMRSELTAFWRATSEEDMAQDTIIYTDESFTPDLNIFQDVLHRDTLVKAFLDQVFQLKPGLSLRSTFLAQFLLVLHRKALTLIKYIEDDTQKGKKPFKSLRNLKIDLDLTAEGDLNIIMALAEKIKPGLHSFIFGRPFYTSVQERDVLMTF
Put plainly: co-IP.

B1: SMCR8-tdTomato (natural protein)
chain: MISAPDVVAFTKEEEYEEEPYNEPALPEEYSVPLFPFASQGANPWSKLSGAKFSRDFILISEFSEQVGPQPLLTIPNDTKVFGTFDLNYFSLRIMSVDYQASFVGHPPGSAYPKLNFVEDSKVVLGDSKEGAFAYVHHLTLYDLEARGFVRPFCMAYISADQHKIMQQFQELSAEFSRASECLKTGNRKAFAGELEKKLKDLDYTRTVLHTETEIQKKANDKGFYSSQAIEKANELASVEKSIIEHQDLLKQIRSYPHRKLKGHDLCPGEMEHIQDQASQASTTSNPDESADTDLYTCRPAYTPKLIKAKSTKCFDKKLKTLEELCDTEYFTQTLAQLSHIEHMFRGDLCYLLTSQIDRALLKQQHITNFLFEDFVEVDDRMVEKQESIPSKPSQDRPPSSSLEECPIPKVLISVGSYKSSVESVLIKMEQELGDEEYKEVEVTELSSFDPQENLDYLDMDMKGSISSGESIEVLGTEKSTSVLSKSDSQASLTVPLSPQVVRSKAVSHRTISEDSIEVLSTCPSEALIPDDFKASYPSAINEEESYPDGNEGAIRFQASISPPELGETEEGSIENTPSQIDSSCCIGKESDGQLVLPSTPAHTHSDEDGVVSSPPQRHRQKDQGFRVDFSVENANPSSRDNSCEGFPAYELDPSHLLASRDISKTSLDNYSDTTSYVSSVASTSSDRIPSAYPAGLSSDRHKKRAGQNALKFIRQYPFAHPAIYSLLSGRTLVVLGEDEAIVRKLVTALAIFVPSYGCYAKPVKHWASSPLHIMDFQKWKLIGLQRVASPAGAGTLHALSRYSRYTSILDLDNKTLRCPLYRGTLVPRLADHRTQIKRGSTYYLHVQSMLTQLCSKAFLYTFCHHLHLPTHDKETEELVASRQMSFLKLTLGLVNEDVRVVQYLAELLKLHYMQESPGTSHPMLRFDYVPSFLYKI
In the case of B1, the “stoichiometry N” value is roughly 1.

For orientation: stoichiometry N means a count of units in the complex or per binding partner.

For the origin of these results see publication PMC5063613 (Molecular Biology of the Cell, 2016).
